Laboratory results taken from PMC4221134 (Advances in biological regulation, 2013).

Biological target: the molecule itself
Assay: native MS

B1: MST1 SARAHmyc (domain or fragment)
chain: DYEFLKSWTVEDLQKRLLALDPMMEQEIEEIRQKYQSKRQPILDAIEAKKRRQQNF
binding result: binds

B2: S-RASSF5 SARAH (domain or fragment)
chain: GEVEWDAFSIPELQNFLTILEKEEQDKIQQVQKKYDKFRQKLEEALRESQGKPG
binding result: binds
